According to patent publication US20150218538A1 (UNIVERSITY OF NORTH CAROLINA AT CHAPEL HILL, published 2015):
Ends that are not written are not given here.

Assays:
[1] = biological target: chimeric form of Gαq (Gαq/i), activated with aluminum fluoride; experiment: fluorescence polarization in 384-well plates; 30 µM unlabeled 27-mer, 200 nM TAMRA-27-mer, 1.5 µM Gαq/i with aluminum fluoride; competitor: TAMRA-27-mer
[2] = biological target: T1, Gαq activated with aluminum fluoride (Gαq-GDP plus aluminum fluoride) (UniProt P50148 35-359); experiment: cell-based or functional assay
T1 sequence (looked up): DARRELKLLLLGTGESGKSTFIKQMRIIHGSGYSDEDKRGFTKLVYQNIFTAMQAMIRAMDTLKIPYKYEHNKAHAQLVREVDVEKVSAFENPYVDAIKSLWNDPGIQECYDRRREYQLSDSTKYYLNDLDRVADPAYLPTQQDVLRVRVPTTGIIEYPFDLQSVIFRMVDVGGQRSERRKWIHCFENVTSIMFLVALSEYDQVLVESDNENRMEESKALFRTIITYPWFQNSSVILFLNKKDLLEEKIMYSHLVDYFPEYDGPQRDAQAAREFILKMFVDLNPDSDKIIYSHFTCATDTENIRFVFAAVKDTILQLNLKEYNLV

[3] = biological target: T1, Gαq activated with aluminum fluoride …; experiment: fluorescence polarization; Gαq activated with aluminum fluoride titrated into TAMRA-labeled peptide
Source text: (§1) Quantification of Gαq binding to peptides corresponding to the HTH of PLβ3. […] KD and IC₅₀ values were derived from three independent experiments.

[4] = biological target: T1, Gαq activated with aluminum fluoride …; experiment: fluorescence polarization competition; unlabeled PLC-β3 added to labeled 25-mer (400 nM) and Gαq (4 µM); competitor: TAMRA-25-mer
Source text: as §1

unlabeled 27-mer (from UniProt Q01970 852-878) (peptide)
percent decrease in fluorescence polarization [1]: 50 percent

peptide corresponding to the HTH of PLC-β3 and containing an I860A substitution (from UniProt Q01970 852-878)
phospholipase activity of PLC-β3 activated by Gαq in lipid vesicles (IC50) [2]: 0.1 µM

B1: TAMRA-25-mer (25-residue peptide spanning the entire helix-turn-helix of PLC-β3, labeled with TAMRA) (peptide)
peptide: HQDYAEALINPIKHVSLMDQRARQL
modifications: also: TAMRA label, position not given here
notes: also called labeled 25-mer; 25 residue peptide of PLC-β3
phospholipase activity of PLC-beta3 activated by G-alpha-q in lipid vesicles, as a function of TAMRA-25-mer concentration (IC50) [2]: ~1 microMolar
Kd [3]: ~6 µM

B2: full-length PLC-β3 (wild type) (enzyme, UniProt Q01970 2-1234, looked up)
chain: AGAQPGVHALQLEPPTVVETLRRGSKFIKWDEETSSRNLVTLRVDPNGFFLYWTGPNMEVDTLDISSIRDTRTGRYARLPKDPKIREVLGFGGPDARLEEKLMTVVSGPDPVNTVFLNFMAVQDDTAKVWSEELFKLAMNILAQNASRNTFLRKAYTKLKLQVNQDGRIPVKNILKMFSADKKRVETALESCGLKFNRSESIRPDEFSLEIFERFLNKLCLRPDIDKILLEIGAKGKPYLTLEQLMDFINQKQRDPRLNEVLYPPLRPSQARLLIEKYEPNQQFLERDQMSMEGFSRYLGGEENGILPLEALDLSTDMTQPLSAYFINSSHNTYLTAGQLAGTSSVEMYRQALLWGCRCVELDVWKGRPPEEEPFITHGFTMTTEVPLRDVLEAIAETAFKTSPYPVILSFENHVDSAKQQAKMAEYCRSIFGDALLIEPLDKYPLAPGVPLPSPQDLMGRILVKNKKRHRPSAGGPDSAGRKRPLEQSNSALSESSAATEPSSPQLGSPSSDSCPGLSNGEEVGLEKPSLEPQKSLGDEGLNRGPYVLGPADREDEEEDEEEEEQTDPKKPTTDEGTASSEVNATEEMSTLVNYIEPVKFKSFEAARKRNKCFEMSSFVETKAMEQLTKSPMEFVEYNKQQLSRIYPKGTRVDSSNYMPQLFWNVGCQLVALNFQTLDVAMQLNAGVFEYNGRSGYLLKPEFMRRPDKSFDPFTEVIVDGIVANALRVKVISGQFLSDRKVGIYVEVDMFGLPVDTRRKYRTRTSQGNSFNPVWDEEPFDFPKVVLPTLASLRIAAFEEGGKFVGHRILPVSAIRSGYHYVCLRNEANQPLCLPALLIYTEASDYIPDDHQDYAEALINPIKHVSLMDQRARQLAALIGESEAQAGQETCQDTQSQQLGSQPSSNPTPSPLDASPRRPPGPTTSPASTSLSSPGQRDDLIASILSEVAPTPLDELRGHKALVKLRSRQERDLRELRKKHQRKAVTLTRRLLDGLAQAQAEGRCRLRPGALGGAADVEDTKEGEDEAKRYQEFQNRQVQSLLELREAQVDAEAQRRLEHLRQALQRLREVVLDANTTQFKRLKEMNEREKKELQKILDRKRHNSISEAKMRDKHKKEAELTEINRRHITESVNSIRRLEEAQKQRHDRLVAGQQQVLQQLAEEEPKLLAQLAQECQEQRARLPQEIRRSLLGEMPEGLGDGPLVACASNGHAPGSSGHLSGADSESQEENTQL
notes: mature; also called PLC-beta3; unlabeled PLC-β3
IC50 [4]: ~1 µM
